Results taken from patent US7105166.

Legend:
[1] = target: B7 antigen (B7-1, CD80) expressed on cells (human) (UniProt P33681); experiment: enzyme immunoassay on fixed B7-1+ CHO cells
[2] = target: B7 antigen (B7-1, CD80) expressed on cells (human) (UniProt P33681); experiment: B7-1+ CHO cell enzyme immunoassay; binding activity relative to CTLA4Ig, from the concentrations giving the same A450

Chain of B7 antigen (B7-1, CD80) expressed on cells (human) (P33681 35-288): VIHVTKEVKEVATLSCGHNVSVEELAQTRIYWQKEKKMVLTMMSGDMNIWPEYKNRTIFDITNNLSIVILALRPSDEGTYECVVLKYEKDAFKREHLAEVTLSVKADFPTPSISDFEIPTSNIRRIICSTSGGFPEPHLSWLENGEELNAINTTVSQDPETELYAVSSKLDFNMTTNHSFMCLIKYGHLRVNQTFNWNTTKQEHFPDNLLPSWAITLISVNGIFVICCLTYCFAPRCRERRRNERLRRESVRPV

Binder | % binding activity relative to CTLA4Ig [1] | % B7 binding activity [2] | % of wild type binding [1]
CTLA4/CD28Ig hybrid fusion protein HS7 (Fc fusion, not shown: a dimerising Fc or GST) NKILVKQSPMLVAYDNAYNLSCKYASPGKATEFRASLHKGLDSAVEVCVVYGNYSQQLQVYSKTGFNCDGKLGNESVTFYLQNLYVNQTDIYFCKIELMYPPPYYLGIGNGTQIYVIDPEPCPDSD | 44% | 44% | 
CTLA4/CD28Ig hybrid fusion protein HS4-B (Fc fusion, not shown: a dimerising Fc or GST) NKILVKQSPMLVAYDNAYNLSCKYSYNLFSREFRASLHKGLDSAVEVCVVYGNYSQQLQVYSKTGFNCDGKLGNESVTFYLQNLYVNQTDIYFCKIEVMYPPPYLDNEKSNGTIIYVIDPEPCPDSD |  | 5% | 
CTLA4/CD28Ig hybrid fusion protein HS9 (Fc fusion, not shown: a dimerising Fc or GST) NKILVKQSPMLVAYDNAYNLSCKYASPGKATEFRASLHKGLDSAVEVCVVYGNYSQQLQVYSKTGFNCDGKLGNESVTFYLQNLYVNQTDIYFCKIEVMYPPPYLDNEKSNGTIIYVIDPEPCPDSD |  | 5% | 
CTLA4/CD28Ig hybrid fusion protein HS8 (Fc fusion, not shown: a dimerising Fc or GST) NKILVKQSPMLVAYDNAYNLSCKYASPGKATEFRASLHKGLDSAVEVCVVYGNYSQQLQVYSKTGFNCDGKLGNESVTFYLQNLYVNQTDIYFCKIELMYPPPYYLGIGNGTQIHVKGKHLCPS |  | 56% | 60%
